{"source": "the DeepSol protein solubility set", "data": [{"test": "soluble on expression in E. coli; label from the status in PepcDB or PDB records", "values": [{"sequence": "MGSDKIHHHHHHMSLNSTPQSVRVHIGLFGKRNAGKSSIINAITNQSAAIVSDIAGTTTDPVFRPMEILPIGPCVLIDTAGLDDVGELGELRIGKSLDVLEKTDIALLVVDCQIGISQEDLSLIEKFNDKNIPHILILNKIDTIKNQSEILNLTKNKVKCPVVSVSSTDKIGIENLKNEIIKVLPKDSTEFKLVSDLIEPNDLVVLVVPIDKAAPKGRLILPQQQVIRDILDNGAISIVTKEDSLKETLSNLGKKPKLVITDSQVFPQVDKDTPKDIPLTSFSILFARQKGDLKELINGAYALENLKDGDKILMAEGCTHHRQTDDIGTVKIPNMIRKKTGKNITFEFSSGVSFTEDINKYALVVHCGACMMNRAGMLSRIEKAKSFNVPIVNYGVLIAYVKGILERSLELFNY", "soluble on expression in E. coli": "not soluble"}, {"sequence": "MGSDKIHHHHHHMSLSNMQVFNDYIMPATIKSLDQMIDKFNAGSAGAIVLSSEGMTGDFMRESFFASLAAAQRRVNRKGANGAASATDLSELTGSKVKIAGGFGPVRYEPSQMTWLQRPTQQGVLAASTAFAELLLQDQLNTAIAALVAALSNNAAVTNDVSGSAGMTYGAINSAHAKFGDASGQIVANVMTGTVAHKLIGDNLTNGQRLFTAGNVNVIDILGKAVIVTDAPALYEAGTPNKSKVLGLVPGAATVGNTSDIITNVETTNGKERIETTFQADYSFSLGLKGYGWDEANGGASPTDAEIATGTNWDKVAEFDKMTAGVIAVADADQ", "soluble on expression in E. coli": "not soluble"}, {"sequence": "MGSDKIHHHHHHMSLSYLQTSLDRIDAAARDDVIEICINPDGSCWGEFQGDHFMRKLDQALTATEVKDLGNQIASSANTTMSKDRPIVSVSITYKGRPIRAQVITPPAVLSAMSISLRFFSSLPLDGIALDFLYGKERKLEKLRLKKTRELREVVAAGVIDDALAFCVDNKLNMIVSGGTSTGKTVAARKILSHVPADERIVTIEEAAELLPTQPNAVTLIANRDAEFQTADVLLTATLRMRPDRIILGEVRGKEAMTFLEAINTGHGGSMTTLHAETPQLAVQRLAIAALKTEIPMTYADMIQYIENSIDVIIQAGRHDGRRGITEFYLPGATEIGVSQ", "soluble on expression in E. coli": "not soluble"}, {"sequence": "MGSDKIHHHHHHMSLTDGPYAGPPQPDVVDPSGGANQTRVRAYNERLVMSLVRRHGSLSKAEIARRSGLSAQTASVIMRSLEADGLLVRGAPVRGRVGQPSIPMRLNPDAVYSFGVKIGRRSADLVLMDFLGTIRLHLHQIHTYPLPEEIVSFIVGGIGKLEGQLGPGERGRIAGVGIATPFELWNWSEEVGAPREEMDRWRDFDLQAAVASRIRHPVFLQNDGTSACGAELAFGVGASYPDFVYFYIGSFIGGGVVINSALFSGRTGTAGAVGPLPVAGKDGKSTQLLKIASVFVLEKLLRERGIDPEPLWYSADDWIDFGEPLEIWIQDAAAALAQAVVSAVSVVDFSAAVIDGGFPPWVRARLLAATRKALQTLDLQGVTVPDLVEGTVGSHARAIGGASLPLFSRYLLDTNVLFKEL", "soluble on expression in E. coli": "not soluble"}, {"sequence": "MGSDKIHHHHHHMSLTRLNIEAFRNIQSAQLIPAPGINLIYGQNGSGKTSILEAIYFLGMGRSFRSHLSQRVINNDDDKLTLFATLNLARGDSKIGLRRFRSGETEVRIDGEKVKRLSTLAETLPIQVITPESFSLLFEGPKSRRQFIDWGAFHADPQFYGAWTNVRRVLKQRNQLLRNGSAYSNIQFWDQEFVRYAEQVTEIRNHYVDSLNELLKGIIGEFLPSVDVKVSFTRGWDSKTDFAELLENQYSRDLATGHTVSGPHKADLRLRVGTLPAQDALSRGQLKLLVCALRIAQGKLLKQQIDKHSIYLVDDLPSELDAQHRQLLLKQLTDTGAQVFVTAIDPAAIVDSLHTPPSRMFHVEQGRVTVIE", "soluble on expression in E. coli": "not soluble"}, {"sequence": "MGSDKIHHHHHHMSLVINQLSKRIDHHQTLDGISFEIGLGQIVGVVGRNGVGKTTLFRTINGQYLTDHGQVLVDGQEVVDQPEMRTQLCFIDPLANFFKGATIAQIQWYYQAAYPDFDNAKFAQLLDRYHLTSKQKLRHFSKGMFGLFTIILSVATQAPYLFLDEPLDGLDVLIRKNILGILIDEVATGNRSIVIASHNLAELEGVIDRALMLKHGRIVNDYQLEAMRRSARKVQLVYRDKQIPAVVKQLGHIVHVSGRVIVVVFEDYNAEVQAQLATTNPVFQEDLPLSLADLFMANLTDEADFELLS", "soluble on expression in E. coli": "not soluble"}, {"sequence": "MGSDKIHHHHHHMSMKISEKKFNDRVGDGIQDSFMRGAVSSAQTRLYTNRLKAADELGNWEEWRELGEEIRQHTLENLDYYLMQLSENVSKRGGHVYFAKTKEEAAKYIQDVAKKKQAKKVVKSKSMVTEEISMNHALEEIGCEVLESDLGEYILQVDNDPPSHIIAPALHKNRTQIRDVFKEKLGYENSDDPYEMTKFVRKQLREKFMDAEIGVTGCNFAVANTGSLCLVTNEGNADLVMSIPKTQIAVMGMERMVPTMEELDVLVGLLCRSAVGQKLTSYVTVAGPIQEEEVDGPEEFHLVVVDNGRSQILGSEFRQVLQCIRCAACVNVCPVYRHVGGHSYGSIYSGPIGAVLTPLLGGYDDYKELPYASSLCGACTEACPVKIPLHDLLLKHRQVIVEQEGRAPLAEKLAMKMFSMGASSAALYKMGSKMAPAAMSPFTSGNRVSKGVGPLKNWTDIREFPAPSKERFRDWYKDHKKGGDK", "soluble on expression in E. coli": "not soluble"}, {"sequence": "MGSDKIHHHHHHMSNESCKDGKIWAYLKNINVYIDQNKILSDINLNLRYGENILILGPNGSGKSTFLKLLNRSIYPITTKDSSFKLFNKENINIWDLRKKIGFLFKEMEQRVNNGVTLYDVISSGFSGIFNSKYTNLLSESKKIKINNLINTWELGDIIYNEFQTLSDGQKRRALLARALVYEPNILVLDEPFCNLDLKSNIILNQNLNELIKHSVNLIYVTHNVESILPKTNRVILIKEGKILNDGSPSELINTKTLSDLFNISIKVIEQEGYWRMIPLSS", "soluble on expression in E. coli": "not soluble"}, {"sequence": "MGSDKIHHHHHHMSNLSLDFSDNTFQPLAARMRPENLAQYIGQQHLLAAGKPLPRAIEAGHLHSMILWGPPGTGKTTLAEVIARYASADVERISAVTSGVKEIREAIERARQNRNAGRRTILFVDEVHRFNKSQQDAFLPHIEDGTITFIGATTENPSFELNSALLSRARVYLLKSLTTDDIEQVLDQAMQDKTRGYGDQDIVLPDETRRAIAELVNGDARRALNTLEMMADMAEADDSGKRVLLPALLTEIAGERSARFDNKGDRFYDLISALHKSVRGSAPDAALYWYARIITAGGDPLYVARRCLAIASEDVGNADPRAMQVAIAAWDCFTRVGPAEGERAIAQAIVYLACAPKSNAVYTAFKAALADARERPDYDVPVHLRNAPTKLMKEMGYGQEYRYAHDEPNAYAAGEVYFPPEIAQTRYYHPTNRGLEGKIGEKLAWLAEQDQNSPTKRYR", "soluble on expression in E. coli": "not soluble"}, {"sequence": "MGSDKIHHHHHHMSNPLLKQICELDVFTLLVFKTIFDTGHANSAAKALDVSAPKISRCLNALRLTFNDELFYRRQQGLKPTPLAESLYAAICQFTNSVYNLEQSALQIQNTHNTTDLPLHIAVSNELLSFLAPQLSSPDVITQLGKIRLHKWQENSAELIHAGELDFGITLENADNKELSYTRLGCISGIYVVASKHHPIWQTELSITLEHICRHPFLCLDLKGFNSKVDPLEFFCQRQGILLPSIDRVIDREEWYAHLLTIQSVAFCSSIDMHTVKHMPGLKLVPLSLTELHRLHDSMLPPQYYLVEKPRARRRYSQTQCDIVVSPLITTLIPTL", "soluble on expression in E. coli": "not soluble"}, {"sequence": "MGSDKIHHHHHHMSNSQILGERARILADQLLAVPTTVYQQRSLQAALHLFLDTGTKTALHRAPLVSKSAVSRLLNNYDWDTAACWALLQRSQWEALLLAARRKRRACLRLSVDLTSIEKTGKQLPFVRVYNEVHGIHLVVLFAEYRGLKFPVGYRVYRGKGTATPVSLALELLGEVPDAIRKRFRIRVLADSGFEAAVFLDGVRTLGFEFVVGVRATRRTTHPGQVTVADCEHGAWLELQNWPHDTLTLARVERGERTFFSVASELMTGDEVAAEGGKRWNIESFFKEGKHQFSLQQFALRTARGLDRWVLLVFLAFTLTMLHRSPDLSLEEAAGLALTLALPFLRLNVIFARLATDEEFLRQHGYSLKIARCNS", "soluble on expression in E. coli": "not soluble"}, {"sequence": "MGSDKIHHHHHHMSPKTALNLFSLLWQNYSARVPYARTYEQMITAAGGTVANDHIAFRSLRLLVDSPRGKVNLGINYLSQIAEALGYEPAGEYNFPQTHLYARHYRHPQQIEFDLPKLFISELIVDELPDNIIQLITQTVSTVADEFTSPLTYFSPAEGNDGVIAQQLQKFFTRPWMTPRRSVVEAVNQVTQYGAWVLLHGYAVNHFTGYVNRHQTPEYADIDDTARGLANLGVPMKAEIEGDVTWGLRQTATQAVKEMVTVIDDISGQEVEIPWTYAYYEIAQRYPLQVEPGKEKLFDGFLGNNAQQLFEMTRLVECDAAKIGK", "soluble on expression in E. coli": "not soluble"}, {"sequence": "MGSDKIHHHHHHMSQDVPGNLLDEIRILRSPKGYLYAGLPKFRALFGRDSIISSIQLIDLFPDIAQNTVIYLKDLQGRKLDYSIGEYPGKILHEYYDDEKIFLDRKRSIPWLNSRINYFSVDSTPLFILLIKNLFLRNLIDIEQFKDSIMMAMQFLIAYSSSDGLITYDKALLGAGLMSQSWRDGVGDIMDRLKSPVATVGVQGYFYESADFVLNLFPDSLIEESLPDLKDFYSKMREILENKFWLEETGYYGLAVDGDGVIEQAATSDPGHLIGSGILTRSRERDVIDRLFESDLLTDYGIRTLSAKDPRFDPKAYQRGSIWPQDNWIIADGIKRRGYLKEYRELRERLIAAYEYYGRMPEYFGVDRYGKIMDLSKLRIKPCYPQAWSTGAIINFVTFK", "soluble on expression in E. coli": "not soluble"}, {"sequence": "MGSDKIHHHHHHMSQHRDAAFLTAKSWQDLPASVPFRLCCIERIDETHDVVTFRFEAAGEPVRFSYKPGQFITLLLEIGGEPHSRAYTLSSSPSRPYSISITVKRVEGGKVSNYLIDNLRPGHALDAMGPSGSFNLVDIPADRYLFLSAGCGITPMFSMSRWLTDTRVGADITFVHSARSVDDLIFAPKLESMANNHSGFRLGYVIEQGNCPDWPYAPVLPGRLTLSGLDSLVSDWRERTLYVCGPEAYMAAVEAMVRDAGFAMSRFHKESFGKPGAPVKSSGQGFMLKVGDKLHPLGESGLLLEGIEALKLPIIAACRSGVCGACKCQVLEGDVERLSEMTLTEEDKANGMVLACSARALSNISLKL", "soluble on expression in E. coli": "not soluble"}, {"sequence": "MGSDKIHHHHHHMSQLLYDNGTHKCIAFTDLVEGEGIQANQFLIVNNGEGMLLDPGGNLTYKNLLAEMASYFLPAHLDYVFASHEDPDIVASANGWLLITDAKILIANEWTRFLPHFCSKGMTAGRVIGIPAQGMRVNLAGQELFVVPAHYMHSVGNFQVYDPVSKILFSGDLGANLVSGHDAAKVIEGAEAFAAHRAATSMDGFHRRYMGGQKVCRLWTNMARGMDIEWIVPQHGASFKGRETVLAFLDWFEGLESGPDLLTQKDFQFPIPENL", "soluble on expression in E. coli": "not soluble"}, {"sequence": "MGSDKIHHHHHHMSQMSFSDFEYAGKRKQTRRERFLAEMDQVVPWAGLLGLIEPFYPKAGGGRKPYPLETMLRIHLLQNWFSLSDPAMEEALYEITPMRQFAHLTLSAPIPEDTTIMNFRHLLEKHQLAPAILAVINGYLQEKGLSLRQGTIVDATIIHVPSSTKNKDGERDPEMHQTKKGNQYFFGMKAHISADVESGLVHHVHGTAANVADVTQVAELLHGEENAVYADAGYTGVEKREEHENRDVIWQIAARRSTYSKLNKRSLLYKAKRKIEYCKAQTRAKVEHPFRVIKRQFGYVKVRFRGLMKNTAQLTTLFALSNLWMARKRLMGLGELRI", "soluble on expression in E. coli": "not soluble"}, {"sequence": "MGSDKIHHHHHHMSQNASNDHMALSEDYVRNFFTYADPDNEAMLQLYRIGVFRTAKALSAGWIMPDEDARTARNLEYLRDNFEPGDVSVGELVSSETQLASFPDIYFRIRKVLDSPNSSADDISREISNDLGLTAKLLKLVNSPFYGLAHTVEDVSHAIAIVGVEEVSTLALGISAINVFKDIPQELIDMKAFWKHSVSCGVFAKLIASRIEGMKADKFFTAGLLHDVGRLIIFKKMPYASVQLLLYARENQLPVVESEEDHLGFDHTQVAKQLLTEWKFPASMVDCLAFHHAPSQAQDQLAASILQLADNMANAMEISSGGMYLLPGMEEGAWERIPLQGDDLVEIVGLFDSHIEELFKAIL", "soluble on expression in E. coli": "not soluble"}]}]}
